According to patent US20020076795A1, “Novel TRF1 binding protein, methods of use thereof” (published 2002):

Key:
[1] = target: amino-terminal acidic domain of TRF1 fused to LexA (LexAd68-C) (human) (UniProt P54274); assay: cell-based or functional assay
[2] = target: T1, baculovirus-derived TRF1, P54274
T1 chain: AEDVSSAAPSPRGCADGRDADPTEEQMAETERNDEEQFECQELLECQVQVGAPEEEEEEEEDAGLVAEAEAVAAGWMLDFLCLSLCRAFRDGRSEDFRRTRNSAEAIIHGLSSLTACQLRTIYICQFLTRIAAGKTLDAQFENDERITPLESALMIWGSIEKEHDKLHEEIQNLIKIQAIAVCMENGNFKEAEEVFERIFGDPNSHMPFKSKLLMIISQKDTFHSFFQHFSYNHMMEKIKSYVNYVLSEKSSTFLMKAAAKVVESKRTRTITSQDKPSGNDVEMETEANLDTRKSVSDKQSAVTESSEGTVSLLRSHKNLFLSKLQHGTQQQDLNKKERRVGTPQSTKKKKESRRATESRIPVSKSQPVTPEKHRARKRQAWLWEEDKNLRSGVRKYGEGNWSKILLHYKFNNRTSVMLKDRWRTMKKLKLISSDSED

[3] = target: T2, TRF2 (telomeric repeat binding factor 2), Q15554
T2 chain: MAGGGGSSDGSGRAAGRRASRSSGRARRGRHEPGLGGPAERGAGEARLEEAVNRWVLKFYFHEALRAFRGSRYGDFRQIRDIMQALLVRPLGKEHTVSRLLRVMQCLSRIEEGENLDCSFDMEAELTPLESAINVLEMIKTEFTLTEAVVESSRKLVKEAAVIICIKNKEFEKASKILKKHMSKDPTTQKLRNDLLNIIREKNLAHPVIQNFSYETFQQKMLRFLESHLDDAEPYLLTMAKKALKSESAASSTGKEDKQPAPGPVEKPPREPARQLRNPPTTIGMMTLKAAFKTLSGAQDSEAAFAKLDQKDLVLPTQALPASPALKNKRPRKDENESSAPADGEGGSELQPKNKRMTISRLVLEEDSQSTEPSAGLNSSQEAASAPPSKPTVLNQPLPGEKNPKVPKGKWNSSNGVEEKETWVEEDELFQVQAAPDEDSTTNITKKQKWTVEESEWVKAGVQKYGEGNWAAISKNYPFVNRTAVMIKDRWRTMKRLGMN

[4] = target: T3, GAD-tankyrase hybrid containing 10 internal ANK repeats (9-19) (TR1L-12) (human, UniProt O95271 436-797); assay: yeast two-hybrid, β-galactosidase; LexA without TRF1 sequences
T3 construct: the construct holds only ANK repeats 9-19; also called 10-ANK repeat domain of tankyrase
T3 sequence: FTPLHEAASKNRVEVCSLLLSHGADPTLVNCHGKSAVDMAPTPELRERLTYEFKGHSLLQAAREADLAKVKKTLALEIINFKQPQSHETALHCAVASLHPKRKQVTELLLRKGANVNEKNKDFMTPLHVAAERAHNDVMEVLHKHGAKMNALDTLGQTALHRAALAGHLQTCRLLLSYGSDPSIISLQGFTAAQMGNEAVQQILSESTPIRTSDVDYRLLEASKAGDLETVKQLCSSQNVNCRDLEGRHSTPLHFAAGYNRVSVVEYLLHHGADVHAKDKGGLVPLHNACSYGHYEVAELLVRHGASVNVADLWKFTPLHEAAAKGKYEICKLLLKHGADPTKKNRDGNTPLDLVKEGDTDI
Protocol: TR1L-4 and TR1L-12 were isolated from a human liver two-hybrid cDNA library (Clontech) created in pGad10. The library was screened with human full length TRF1 cDNA fused to LexA (LexA-TRF1) [Bianchi et al., EMBO J., 16:1785-1794 (1997)] in the yeast strain L40 as described [Hollenberg et al., Mol. Cell Biol., 15:3813-3822 (1995)]. Two-hybrid analysis was performed as described by Bianchi et al. [EMBO J., 16:1785-1794 (1997)]. β-galactosidase assays for the two-hybrid analysis was performed as described by Bianchi et al. [EMBO J., 16:1785-1794 (1997)].
Two-hybrid analysis was used to determine the interacting domains between tankyrase and TRF1. […] To determine the tankyrase-interacting domain in TRF1, two-hybrid analysis was performed with the 10-ANK repeat domain of TR1L-12 fused to the GAL4 activation domain (GAD-tankyrase) and full-length and deletion constructs of TRF1 fused to LexA. […] As observed previously, the amino-terminal acidic domain of TFR1 (LexAd68-C) activated transcription even in the absence of tankyrase sequences in the GAD fusion partner. […] Deletion of the acidic domain of TRF1 (ΔN66-LexA) abolished the interaction with GAD-tankyrase.

[5] = target: T4, FLAG-tankyrase (encoding amino acids 2-1327 of SEQ ID NO:2) (human, UniProt O95271 2-1327); assay: indirect immunofluorescence of co-transfected HeLaI cells (co-localization, nuclear translocation)
T4 construct: Expressed by transient transfection in HeLaI cells; also called exogenous tankyrase; transfected tankyrase
T4 sequence: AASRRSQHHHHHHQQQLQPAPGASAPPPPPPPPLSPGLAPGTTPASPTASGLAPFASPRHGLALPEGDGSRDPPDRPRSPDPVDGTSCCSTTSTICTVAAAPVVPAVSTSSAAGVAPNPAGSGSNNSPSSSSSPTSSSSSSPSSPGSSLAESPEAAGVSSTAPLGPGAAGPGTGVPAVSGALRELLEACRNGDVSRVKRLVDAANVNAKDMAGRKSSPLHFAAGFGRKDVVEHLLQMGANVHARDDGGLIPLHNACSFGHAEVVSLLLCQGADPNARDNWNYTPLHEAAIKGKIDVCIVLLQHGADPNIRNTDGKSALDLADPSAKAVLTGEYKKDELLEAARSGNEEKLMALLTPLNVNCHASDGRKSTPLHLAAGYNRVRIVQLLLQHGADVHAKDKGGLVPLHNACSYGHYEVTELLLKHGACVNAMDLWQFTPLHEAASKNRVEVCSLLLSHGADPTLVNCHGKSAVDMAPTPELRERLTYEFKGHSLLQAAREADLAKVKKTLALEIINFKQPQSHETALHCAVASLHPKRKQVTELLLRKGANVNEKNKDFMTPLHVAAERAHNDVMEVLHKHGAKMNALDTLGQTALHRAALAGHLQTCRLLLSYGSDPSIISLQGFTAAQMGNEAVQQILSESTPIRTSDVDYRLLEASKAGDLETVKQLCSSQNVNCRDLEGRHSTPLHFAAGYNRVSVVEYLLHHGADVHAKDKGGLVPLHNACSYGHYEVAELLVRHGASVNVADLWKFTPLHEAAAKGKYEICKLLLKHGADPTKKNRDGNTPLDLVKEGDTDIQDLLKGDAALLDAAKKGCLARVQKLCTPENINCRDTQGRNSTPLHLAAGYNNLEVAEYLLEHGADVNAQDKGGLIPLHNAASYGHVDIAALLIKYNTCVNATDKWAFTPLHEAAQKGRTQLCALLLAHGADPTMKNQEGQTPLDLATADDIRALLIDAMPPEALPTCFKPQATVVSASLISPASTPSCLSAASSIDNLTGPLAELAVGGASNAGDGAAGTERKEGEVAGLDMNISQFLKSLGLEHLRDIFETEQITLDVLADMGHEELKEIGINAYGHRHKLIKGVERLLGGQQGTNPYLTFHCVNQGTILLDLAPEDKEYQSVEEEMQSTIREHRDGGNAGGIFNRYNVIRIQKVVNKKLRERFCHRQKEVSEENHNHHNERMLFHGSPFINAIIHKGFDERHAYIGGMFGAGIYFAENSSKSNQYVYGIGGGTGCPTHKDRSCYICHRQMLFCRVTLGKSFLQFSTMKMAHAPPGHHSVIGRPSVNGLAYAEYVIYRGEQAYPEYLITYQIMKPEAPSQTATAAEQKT

“GAD-tankyrase hybrid containing 10 internal ANK repeats (9-19) (TR1L-12) (from UniProt O95271 436-797)” showed a β-galactosidase levels (two-hybrid) [1] of 50.4 units.

B1: baculovirus-derived N-terminally [His]6-tagged fusion protein of human tankyrase (protein)
chain: MAASRRSQHHHHHHQQQLQPAPGASAPPPPPPPPLSPGLAPGTTPASPTASGLAPFASPRHGLALPEGDGSRDPPDRPRSPDPVDGTSCCSTTSTICTVAAAPVVPAVSTSSAAGVAPNPAGSGSNNSPSSSSSPTSSSSSSPSSPGSSLAESPEAAGVSSTAPLGPGAAGPGTGVPAVSGALRELLEACRNGDVSRVKRLVDAANVNAKDMAGRKSSPLHFAAGFGRKDVVEHLLQMGANVHARDDGGLIPLHNACSFGHAEVVSLLLCQGADPNARDNWNYTPLHEAAIKGKIDVCIVLLQHGADPNIRNTDGKSALDLADPSAKAVLTGEYKKDELLEAARSGNEEKLMALLTPLNVNCHASDGRKSTPLHLAAGYNRVRIVQLLLQHGADVHAKDKGGLVPLHNACSYGHYEVTELLLKHGACVNAMDLWQFTPLHEAASKNRVEVCSLLLSHGADPTLVNCHGKSAVDMAPTPELRERLTYEFKGHSLLQAAREADLAKVKKTLALEIINFKQPQSHETALHCAVASLHPKRKQVTELLLRKGANVNEKNKDFMTPLHVAAERAHNDVMEVLHKHGAKMNALDTLGQTALHRAALAGHLQTCRLLLSYGSDPSIISLQGFTAAQMGNEAVQQILSESTPIRTSDVDYRLLEASKAGDLETVKQLCSSQNVNCRDLEGRHSTPLHFAAGYNRVSVVEYLLHHGADVHAKDKGGLVPLHNACSYGHYEVAELLVRHGASVNVADLWKFTPLHEAAAKGKYEICKLLLKHGADPTKKNRDGNTPLDLVKEGDTDIQDLLKGDAALLDAAKKGCLARVQKLCTPENINCRDTQGRNSTPLHLAAGYNNLEVAEYLLEHGADVNAQDKGGLIPLHNAASYGHVDIAALLIKYNTCVNATDKWAFTPLHEAAQKGRTQLCALLLAHGADPTMKNQEGQTPLDLATADDIRALLIDAMPPEALPTCFKPQATVVSASLISPASTPSCLSAASSIDNLTGPLAELAVGGASNAGDGAAGTERKEGEVAGLDMNISQFLKSLGLEHLRDIFETEQITLDVLADMGHEELKEIGINAYGHRHKLIKGVERLLGGQQGTNPYLTFHCVNQGTILLDLAPEDKEYQSVEEEMQSTIREHRDGGNAGGIFNRYNVIRIQKVVNKKLRERFCHRQKEVSEENHNHHNERMLFHGSPFINAIIHKGFDERHAYIGGMFGAGIYFAENSSKSNQYVYGIGGGTGCPTHKDRSCYICHRQMLFCRVTLGKSFLQFSTMKMAHAPPGHHSVIGRPSVNGLAYAEYVIYRGEQAYPEYLITYQIMKPEAPSQTATAAEQKT
B1 was tested, and the “ADP-ribosylation of TRF1 (PARP assay with [32P]NAD+)” value [2] was “Tankyrase also has the ability to modify TRF1” and the “ADP-ribosylation (PARP assay)” value [3] was “TRF2 is not a substrate for modification in vitro”.

B2: LexA (alone) (other, UniProt P0A7C2 1-202, looked up)
chain: MKALTARQQEVFDLIRDHISQTGMPPTRAEIAQRLGFRSPNAAEEHLKALARKGVIEIVSGASRGIRLLQEEEEGLPLVGRVAAGEPLLAQQHIEGHYQVDPSLFKPNADFLLRVSGMSMKDIGIMDGDLLAVHKTQDVRNGQVVVARIDDEVTVKRLKKQGNKVELLPENSEFKPIVVDLRQQSFTIEGLAVGVIRNGDWL
notes: Control
B2: no binding [4].

B3: human TRF1 (telomeric repeat binding factor 1), expressed from pcDNA3-hTRF1 in HeLaI cells (other, UniProt P54274 1-439, looked up)
chain: MAEDVSSAAPSPRGCADGRDADPTEEQMAETERNDEEQFECQELLECQVQVGAPEEEEEEEEDAGLVAEAEAVAAGWMLDFLCLSLCRAFRDGRSEDFRRTRNSAEAIIHGLSSLTACQLRTIYICQFLTRIAAGKTLDAQFENDERITPLESALMIWGSIEKEHDKLHEEIQNLIKIQAIAVCMENGNFKEAEEVFERIFGDPNSHMPFKSKLLMIISQKDTFHSFFQHFSYNHMMEKIKSYVNYVLSEKSSTFLMKAAAKVVESKRTRTITSQDKPSGNDVEMETEANLDTRKSVSDKQSAVTESSEGTVSLLRSHKNLFLSKLQHGTQQQDLNKKERRVGTPQSTKKKKESRRATESRIPVSKSQPVTPEKHRARKRQAWLWEEDKNLRSGVRKYGEGNWSKILLHYKFNNRTSVMLKDRWRTMKKLKLISSDSED
B3: binds [5].
